Assay results reported in patent publication US20050038611.
pKd: −log10 of the molar value.

Target: T1, ribosomal protein S8 (Staphylococcus aureus) (UniProt A6U3W1)
T1 sequence: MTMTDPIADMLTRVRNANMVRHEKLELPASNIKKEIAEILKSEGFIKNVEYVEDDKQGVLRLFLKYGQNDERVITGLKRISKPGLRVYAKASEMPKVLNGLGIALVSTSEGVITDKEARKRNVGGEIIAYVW
Assay: filter
Conditions: 80 mM HEPES-KOH pH 7.6, 350 mM KOAc, 20 mM MgOAc, on ice

Substance: S. aureus Helix 21 A604-U652 to G-C
- binding signal (fold decrease in affinity vs wild type) (apparent Kd in Table 5 not given): 10

Substance: S. aureus Helix 21 rRNA wild type (nts 596-659 of 16S rRNA)
- pKd: 6.40
